The values below are quoted from earlier work in publication PMC12093155.

In this data set the target is Prx1 (Homo sapiens) (UniProt Q06830).
Prx1 (Homo sapiens), sequence (Q06830 2-199): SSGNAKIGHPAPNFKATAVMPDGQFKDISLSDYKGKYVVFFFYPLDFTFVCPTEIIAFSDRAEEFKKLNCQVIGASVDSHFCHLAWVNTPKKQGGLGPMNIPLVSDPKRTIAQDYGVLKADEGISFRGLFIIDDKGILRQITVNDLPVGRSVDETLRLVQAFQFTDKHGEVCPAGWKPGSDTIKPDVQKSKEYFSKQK

Srx, sequence (Q9BYN0 whole entry): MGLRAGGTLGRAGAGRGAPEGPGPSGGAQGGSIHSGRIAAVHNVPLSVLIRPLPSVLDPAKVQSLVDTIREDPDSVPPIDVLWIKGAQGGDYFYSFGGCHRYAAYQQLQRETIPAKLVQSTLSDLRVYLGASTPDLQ

Regarding Srx (from UniProt Q9BYN0), the Kd is 7 µM.

A word on the Kd: it is the equilibrium constant for the complex coming apart.
